Measurements: patent US20240327544A1 (BIONTECH, published 2024)
Where “and” joins values, the source holds several entries; their conditions need not be identical. Equal entries are not always repeated.

Legend:
[1] = molecular target: T1, C1q (complement protein C1q from human serum) (human, UniProt P02745 23-245; P02746 28-253; P02747 29-245); test: flow cytometry, activated human CD8+ T cells, FITC anti-C1q
T1 construct: Human serum (20%) was the source of C1q

[2] = molecular target: human PD-1, full-length, expressed on cells (human, UniProt Q15116 25-288); test: cell-based or functional assay
Chain of human PD-1, full-length, expressed on cells (Q15116 25-288 limits assumed): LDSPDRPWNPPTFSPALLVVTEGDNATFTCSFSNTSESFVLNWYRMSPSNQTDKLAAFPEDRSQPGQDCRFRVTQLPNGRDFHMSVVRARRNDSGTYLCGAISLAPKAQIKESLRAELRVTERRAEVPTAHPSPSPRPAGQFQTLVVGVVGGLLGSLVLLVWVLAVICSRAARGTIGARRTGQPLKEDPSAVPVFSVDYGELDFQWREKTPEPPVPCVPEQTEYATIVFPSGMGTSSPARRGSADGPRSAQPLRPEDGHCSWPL

T1 sequence (P02745 23-245 limits assumed, chain 1 of 3): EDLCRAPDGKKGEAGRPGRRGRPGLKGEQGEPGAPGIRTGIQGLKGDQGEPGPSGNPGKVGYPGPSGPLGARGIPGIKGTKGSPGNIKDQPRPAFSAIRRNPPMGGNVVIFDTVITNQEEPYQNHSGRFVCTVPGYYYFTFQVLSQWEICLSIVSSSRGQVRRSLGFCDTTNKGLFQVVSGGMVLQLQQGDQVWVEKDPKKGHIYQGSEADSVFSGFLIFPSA
T1 sequence (P02746 28-253 limits assumed, chain 2 of 3): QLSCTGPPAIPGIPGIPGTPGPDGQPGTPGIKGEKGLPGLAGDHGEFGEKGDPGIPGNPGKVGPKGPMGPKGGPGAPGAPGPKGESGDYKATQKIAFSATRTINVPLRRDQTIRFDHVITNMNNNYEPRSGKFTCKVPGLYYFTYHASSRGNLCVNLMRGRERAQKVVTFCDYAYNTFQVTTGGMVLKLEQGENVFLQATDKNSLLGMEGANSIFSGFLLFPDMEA
T1 sequence (P02747 29-245 limits assumed, chain 3 of 3): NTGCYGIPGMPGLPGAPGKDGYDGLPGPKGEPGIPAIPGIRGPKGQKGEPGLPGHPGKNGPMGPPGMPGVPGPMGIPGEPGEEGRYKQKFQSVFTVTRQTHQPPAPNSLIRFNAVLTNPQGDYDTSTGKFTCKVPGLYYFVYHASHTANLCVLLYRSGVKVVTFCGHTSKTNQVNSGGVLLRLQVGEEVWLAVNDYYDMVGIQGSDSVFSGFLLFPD

- EC50 of PD-1/PD-L1 checkpoint blockade (luminescence, PD-1/PD-L1 blockade reporter assay) [2]: 0.165 µg/mL and 1.12 nM
B1: IgG1-PD1 (antibody)
heavy: QVQLVESGGGLVQPGTSLRLSCSVSGFSLYSYNMGWVRQAPGKGLEYIGIISGGTIGHYASWAKGRFTISRDTSKTTLYLQMNSLTTEDTATYFCARAFYDDYDYNVWGPGTLVTVSSASTKGPSVFPLAPSSKSTSGGTAALGCLVKDYFPEPVTVSWNSGALTSGVHTFPAVLQSSGLYSLSSVVTVPSSSLGTQTYICNVNHKPSNTKVDKRVEPKSCDKTHTCPPCPAPEFERGPSVFLFPPKPKDTLMISRTPEVTCVVVDVSHEDPEVKFNWYVDGVEVHNAKTKPREEQYNSTYRVVSVLTVLHQDWLNGKEYKCKVSNKALPAPIEKTISKAKGQPREPQVYTLPPSREEMTKNQVSLTCLVKGFYPSDIAVEWESNGQPENNYKTTPPVLDSDGSFFLYSKLTVDKSRWQQGNVFSCSVMHEALHNHYTQKSLSLSPG
light: AIQLTQSPSSLSASVGGTVTITCQSSQSVYGNNQLSWYQQKPGQPPKLLIYQASKLETGVPSRFRGSGSGTQFTLTISSLQSEDFATYYCAGGYSSSSDTTFGGGTEVVVKRTVAAPSVFIFPPSDEQLKSGTASVVCLLNNFYPREAKVQWKVDNALQSGNSQESVTEQDSKDSTYSLSSTLTLSKADYEKHKVYACEVTHQGLSSPVTKSFNRGEC
notes: Humanized rabbit anti-PD-1 antibody, Fc-inert IgG1 kappa; also called MAB-19-0618 variable regions in a human IgG1m(f) L234F/L235E/G236R (FER) backbone
- binding result [1]: no binding (tested: antibody up to 30 µg/mL, 20% human serum)
